Data on two molecules can be found in US20240093191A1, “COMPOSITIONS AND METHODS FOR TREATING DISEASE ASSOCIATED WITH DUX4 OVEREXPRESSION” (RESEARCH INSTITUTE AT NATIONWIDE CHILDREN'S HOSPITAL, priority 2021, published 2024).

One series has as its system mir-675-5p. As to the kind of experiment: Small-transcript northern blot of mir-675 processing in HEK293 cells. Type of series: cell-based, human. The note with it: for mature mir-675-5p bands on northern blot: HEK293, anti-mir-675-5p biotinylated probe. The source says: Small-Transcript Northern Blots. […] (SEQ ID NO: 148)).
The subject of a further series is DUX4-mir-675Res. Nature of the series: Western blot against mir-675-resistant DUX4 construct (CMV.DUX4-mir-675Res) in HEK293 cells. Conditions: FIG. 20; blinded western blot. Type of series: cell-based, human. The source says:
Sequence Generation and Cloning. All miRNAs used in this study were designed as previously reported in [Wallace et al., Mol. Ther. Methods Clin. Dev. 8:121-130 (2018)]. All miDUX4s were cloned into the mir-30 based/U6 construct as previously described [Wallace et al., Mol. Ther. 20:1417-23 (2012)]. MicroRNA-675 sequence was obtained from the miRBase database (www.mirbase.org), and all mir-675 constructs used in this study were cloned into an expression plasmid downstream of an RNA polymerase III class of promoters (U6 or H1 promoters). The sequence of the stem loop structure of mir-675, mir-675-5p and mir-675-3p constructs is shown in FIG. 17A-B. The CMV.H19 construct was purchased from OriGene. The psi2-DUX4FI was PCR amplified using the AAV.CMV.DUX44V5 construct as template, and the following primers: forward primer: […] (SEQ ID NO: 127), and reverse primer: […] (SEQ ID NO: 128). The PCR product was then cloned into a previously designed psicheck2 (psi2) SD5 mutant (Renilla luciferase have the SD5 mutant) plasmid [Ansseau et al., Plos One 10: e0118813 (2015)] using XhoI/SpeI restriction sites and the psi2.SD5 mutant-DUX4 3′UTR plasmid backbone. […] In addition, this plasmid contains a cytomegalovirus promoter (CMVp)-driven DUX4 full-length sequence encompassing the DUX4 open reading frame (DUX4 ORF), the DUX4 3′UTR sequence (pLAM sequence). […]

B1: U6.mir-675: U6 promoter-driven mir-675 expression plasmid with 40 nt 5' and 47 nt 3' flanking sequences (nucleic acid)
DNA: GACGCCGCCATCTCTAGGCCCGCGCCGGCCCCCTCGCACAGACTTGTGGGAGAAGCTCGGCTACTCCCCTGCCCCGGTTAATTTGCATATAATATTTCCTAGTAACTATAGAGGCTTAATGTGCGATAAAAGACAGATAATCTGTTCTTTTTAATACTAGCTACATTTTACATGATAGGCTTGGATTTCTATAAGAGATACAAATACTAAATTATTATTTTAAAAAACAGCACAAAAGGAAACTCACCCTAACTGTAAAGTAATTGTGTGTTTTGAGACTATAAATATCCCTTGGAGAAAAGCCTTGTTTGCGTTTAGTGAACCGTCAGATGGTACCGTTTAAACTCGAGCCCAGGGTCTGGTGCGGAGAGGGCCCACAGTGGACTTGGTGACGCTGTATGCCCTCACCGCTCAGCCCCTGGGACTAGAGCGGCCGCCACAGCGGGGAGATCCAGACATGATAAGATACATTTTTT
B1: the “mature mir-675-5p bands on northern blot” value in the series with mir-675-5p is “low levels of the mature mir-675-5p”. In addition, the “effect on DUX4 protein level of mir-675-resistant DUX4 construct” value in the series with DUX4-mir-675Res was “not able to reduce DUX4 protein level”.

B2: H1.mir-675: commercially available H1 promoter mir-675 expression plasmid (SBI Biosciences) (nucleic acid)
DNA: GAACGCTGACGTCATCAACCCGCTCCAAGGAATCGCGGGCCCAGTGTCACTAGGCGGGAACACCCAGCGCGCGTGCGCCCTGGCAGGAAGATGGCTGTGAGGGACAGGGGAGTGGCGCCCTGCAATATTTGCATGTCGCTATGTGTTCTGGGAAATCACCATAAACGTGAAATGTCTTTGGATTTGGGAATCTTATAAGTTCTGTATGAGACCACCCCCCAGGGTCTGGTGCGGAGAGGGCCCACAGTGGACTTGGTGACGCTGTATGCCCTCACCGCTCAGCCCCTGGGGAATTCTTCGATTCTGCTTTTTT
Turning to B2, in the series with mir-675-5p, the “mature mir-675-5p produced at 48h versus 24h post-transfection” value is listed as 1.4 fold. The “mature mir-675-5p abundance relative to U6.mir-675-generated” value in the series with mir-675-5p (24 h post-transfection) is 13 fold; with mir-675-5p (48 h post-transfection) it was 23 fold. The “mature mir-675-5p bands on northern blot” value with mir-675-5p is recorded as “abundant levels of the mature mir-675-5p”. The “effect on DUX4 protein level of mir-675-resistant DUX4 construct” value in the series with DUX4-mir-675Res was “not able to reduce DUX4 protein level”.
